For experiment [1], the target named is T1, human myostatin (human) (UniProt O14793).
T1 sequence (biotinylated in selections and radioactive assays (site not stated), looked up): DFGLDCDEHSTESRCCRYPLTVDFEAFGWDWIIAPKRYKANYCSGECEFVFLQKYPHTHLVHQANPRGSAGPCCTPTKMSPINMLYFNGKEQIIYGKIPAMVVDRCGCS

For experiment [2], the target named is T1, human myostatin (human). Briefly: cell-based or functional assay.

The source of these data is patent US20110059504A1.

B1: M3-1, E. coli-produced (designed binder)
chain: MTIPEIIIKVRGTQVVGSDMTVIVEFTNPLKETLRNVWVHLDGPGVTRPMKKMFRAIPMNHKVQWEEVVRPWVSGHRKLIASMPQLFHIHVYGELDVQIQRRHHHHHH
Take B1: in experiment [1], the EC50 (read off the curve); blocking of myostatin-induced inhibition of MPC-11 proliferation came to 30 nM.

B2: M56, E. coli-produced (designed binder)
chain: MTIPEIIIKVRGTQVVGSDMTVIVEFSNPFKETLRNVWVHLDGPGVTRPMKKMFSEIRPNSTVQWEEVVRPWVSGHRKLIARCSLSPWHVYGELDVQIQRRHHHHHH
The molecule B2 had an MPC-11 cell proliferation assay, IC50 in experiment [2] of 150 to 200 nM.

B3: M07, E. coli-produced (designed binder)
chain: MTIPEIIIKVRGTQVVGSDMTVIVEFTNPFKETLRSVWVHLDGPGVTRPMKKMFREIPPKTTVQWEEVVRPWVSGHRKLIARCQLLPWHVYGELDVQIQRRHHHHHH
In turn, B3 came in with an MPC-11 cell proliferation assay, IC50 in experiment [2] of 150 to 200 nM.

B4: M71, E. coli-produced (designed binder)
chain: MTIPEIIIKVRGTQVVGSDMTVIVEFTNPFKETLRSVWVHLDGPGVTRPMKKMFSEIRPNSTVQWEEVVRPWVSGHRKLIARCSLSPWHVYGELDVQIQRRHHHHHH
For the molecule B4, the MPC-11 cell proliferation assay, IC50 in experiment [2] fell in the range of 150 to 200 nM.
